Source: patent publication US20250019432A1

Biological target: CD33 on U937 cells (UniProt P20138)
Assay: cell-based or functional assay

Sequence of CD33 on U937 cells (P20138 18-364 limits assumed): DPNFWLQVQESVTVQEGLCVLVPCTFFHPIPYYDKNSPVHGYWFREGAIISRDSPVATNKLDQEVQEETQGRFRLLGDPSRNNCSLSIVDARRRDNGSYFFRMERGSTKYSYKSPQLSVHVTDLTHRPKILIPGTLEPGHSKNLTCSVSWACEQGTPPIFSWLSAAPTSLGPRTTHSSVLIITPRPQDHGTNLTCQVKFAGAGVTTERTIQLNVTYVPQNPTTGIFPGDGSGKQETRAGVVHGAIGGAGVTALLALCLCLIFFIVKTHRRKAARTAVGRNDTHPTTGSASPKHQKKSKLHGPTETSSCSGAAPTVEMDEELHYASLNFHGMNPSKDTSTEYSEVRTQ

CD33 % surface expression, 0 min: 100%
CD33 % surface expression, 15 min: 79%
CD33 % surface expression, 30 min: 72%
CD33 % surface expression, 45 min: 68%
CD33 % surface expression, 90 min: 53%
CD33 % surface expression, 120 min: 48%
MFI of pH sensitive dye, CD33 complexes, 0 hours: 20.8
MFI of pH sensitive dye, CD33 complexes, 4 hours: 26
MFI of pH sensitive dye, CD33 complexes, 24 hours: 31.9
Substance: anti-CD33 antibody P67.6
